Legend:
Assay in all cases: cell-based or functional assay
[1] = molecular target: IL-18 polypeptide C147 (V11I, C38A, K53A, D54A, C76A, C127A) (human) (UniProt Q14116)
[2] = molecular target: IL-18 polypeptide of SEQ ID NO: 37 (S55A) (human) (UniProt Q14116)
[3] = molecular target: IL-18 polypeptide C164 (V11I, C38A, S55H, C76A, C127A) (human) (UniProt Q14116)
[4] = molecular target: IL-18 polypeptide C166 (V11I, C38A, S55T, C76A, C127A) (human) (UniProt Q14116)
[5] = molecular target: IL-18 polypeptide C162 (K8E, V11I, C38A, C76A, Q103R, C127A) (human) (UniProt Q14116)
Chain of IL-18 polypeptide C162 (K8E, V11I, C38A, C76A, Q103R, C127A) (human) (Q14116 other isoform, or with tags, fused parts or gaps V11I C38A C76A Q103R C127A V11I C38A C76A Q103R C127A): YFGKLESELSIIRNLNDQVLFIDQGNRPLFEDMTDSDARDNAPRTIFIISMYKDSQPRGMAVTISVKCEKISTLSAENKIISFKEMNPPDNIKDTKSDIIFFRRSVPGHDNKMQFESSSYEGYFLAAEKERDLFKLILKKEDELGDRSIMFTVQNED

[6] = molecular target: IL-18 polypeptide of SEQ ID NO: 55 (K53A, T63A, C38S, C68S, C76S, C127S, K70C) (human) (UniProt Q14116)
Chain of IL-18 polypeptide of SEQ ID NO: 55 (K53A, T63A, C38S, C68S, C76S, C127S, K70C) (human) (Q14116 37-193 C74S/K89A/T99A/C104S/K106C/C112S/C163S): as the sequence (Q14116 other isoform, or with tags, fused parts or gaps V11I C38A C76A Q103R C127A V11I C38A C76A Q103R C127A) above, with E8K, I11V, A38S, K53A, T63A, C68S, K70C, A76S, R103Q, A127S counted along it

[7] = molecular target: IL-18 polypeptide of SEQ ID NO: 46 (E06K, K53A, S55A, M51G) (human) (UniProt Q14116)
Chain of IL-18 polypeptide of SEQ ID NO: 46 (E06K, K53A, S55A, M51G) (human) (Q14116 37-193 E42K/M87G/K89A/S91A): as the sequence (Q14116 other isoform, or with tags, fused parts or gaps V11I C38A C76A Q103R C127A V11I C38A C76A Q103R C127A) above, with E6K, E8K, I11V, A38C, M51G, K53A, S55A, A76C, R103Q, A127C counted along it

[8] = molecular target: IL-18 polypeptide of SEQ ID NO: 50 (E06K, K53A, T63A) (human) (UniProt Q14116)
[9] = molecular target: IL-18 polypeptide C152 (V11I, S36A, C38A, K53A, C76A, C127A) (human) (UniProt Q14116)
[10] = molecular target: IL-18 polypeptide C151 (V11I, D35A, C38A, K53A, C76A, C127A) (human) (UniProt Q14116)
[11] = molecular target: IL-18 polypeptide of SEQ ID NO: 60 (E6K, C38Q, K53A) (human) (UniProt Q14116)
Chain of IL-18 polypeptide of SEQ ID NO: 60 (E6K, C38Q, K53A) (human) (Q14116 other isoform, or with tags, fused parts or gaps C38Q K53A C38Q K53A): as the sequence (Q14116 other isoform, or with tags, fused parts or gaps V11I C38A C76A Q103R C127A V11I C38A C76A Q103R C127A) above, with E6K, E8K, I11V, A38Q, K53A, A76C, R103Q, A127C counted along it

[12] = molecular target: IL-18 polypeptide C156 (V11I, C38A, N41A, K53A, C76A, C127A) (human) (UniProt Q14116)
[13] = molecular target: IL-18 polypeptide of SEQ ID NO: 42 (E06K, K53A, S55A, T63A) (human) (UniProt Q14116)
Chain of IL-18 polypeptide of SEQ ID NO: 42 (E06K, K53A, S55A, T63A) (human) (Q14116 37-193 E42K/K89A/S91A/T99A): as the sequence (Q14116 other isoform, or with tags, fused parts or gaps V11I C38A C76A Q103R C127A V11I C38A C76A Q103R C127A) above, with E6K, E8K, I11V, A38C, K53A, S55A, T63A, A76C, R103Q, A127C counted along it

[14] = molecular target: IL-18 polypeptide C149 (V11I, E31A, C38A, K53A, C76A, C127A) (human) (UniProt Q14116)
Chain of IL-18 polypeptide C149 (V11I, E31A, C38A, K53A, C76A, C127A) (human) (Q14116 37-193 V47I/E67A/C74A/K89A/C112A/C163A): as the sequence (Q14116 other isoform, or with tags, fused parts or gaps V11I C38A C76A Q103R C127A V11I C38A C76A Q103R C127A) above, with E8K, E31A, K53A, R103Q counted along it

[15] = molecular target: IL-18 polypeptide of SEQ ID NO: 59 (E6K, C38A, K53A) (human) (UniProt Q14116)
[16] = molecular target: IL-18 polypeptide of SEQ ID NO: 4 (E6K, C38A, K53A, C68A, M86C) (human) (UniProt Q14116)
Chain of IL-18 polypeptide of SEQ ID NO: 4 (E6K, C38A, K53A, C68A, M86C) (human) (Q14116 other isoform, or with tags, fused parts or gaps C38A K53A C68A M86C C38A K53A C68A M86C): as the sequence (Q14116 other isoform, or with tags, fused parts or gaps V11I C38A C76A Q103R C127A V11I C38A C76A Q103R C127A) above, with E6K, E8K, I11V, K53A, C68A, A76C, M86C, R103Q, A127C counted along it

[17] = molecular target: IL-18 polypeptide of SEQ ID NO: 1 (native sequence) (human) (UniProt Q14116)
Chain of IL-18 polypeptide of SEQ ID NO: 1 (native sequence) (human) (Q14116 37-193): as the sequence (Q14116 other isoform, or with tags, fused parts or gaps V11I C38A C76A Q103R C127A V11I C38A C76A Q103R C127A) above, with E8K, I11V, A38C, A76C, R103Q, A127C counted along it

[18] = molecular target: IL-18 polypeptide of SEQ ID NO: 48 (C38S, C68S, C76S, C127S, K70C) (human) (UniProt Q14116)
[19] = molecular target: IL-18 polypeptide C150 (V11I, T34A, C38A, K53A, C76A, C127A) (human) (UniProt Q14116)
Chain of IL-18 polypeptide C150 (V11I, T34A, C38A, K53A, C76A, C127A) (human) (Q14116 37-193 V47I/T70A/C74A/K89A/C112A/C163A): as the sequence (Q14116 other isoform, or with tags, fused parts or gaps V11I C38A C76A Q103R C127A V11I C38A C76A Q103R C127A) above, with E8K, T34A, K53A, R103Q counted along it

[20] = molecular target: IL-18 polypeptide C163 (V11I, C38A, C76A, Q103K, C127A) (human) (UniProt Q14116)
[21] = molecular target: IL-18 polypeptide of SEQ ID NO: 43 (E06K, K53A, S55A, Y01G) (human) (UniProt Q14116)
Chain of IL-18 polypeptide of SEQ ID NO: 43 (E06K, K53A, S55A, Y01G) (human) (Q14116 37-193 Y37G/E42K/K89A/S91A): as the sequence (Q14116 other isoform, or with tags, fused parts or gaps V11I C38A C76A Q103R C127A V11I C38A C76A Q103R C127A) above, with Y1G, E6K, E8K, I11V, A38C, K53A, S55A, A76C, R103Q, A127C counted along it

[22] = molecular target: IL-18 polypeptide of SEQ ID NO: 47 (C38S, C68S, C76S, C127S) (human) (UniProt Q14116)
Chain of IL-18 polypeptide of SEQ ID NO: 47 (C38S, C68S, C76S, C127S) (human) (Q14116 37-193 C74S/C104S/C112S/C163S): as the sequence (Q14116 other isoform, or with tags, fused parts or gaps V11I C38A C76A Q103R C127A V11I C38A C76A Q103R C127A) above, with E8K, I11V, A38S, C68S, A76S, R103Q, A127S counted along it

[23] = molecular target: IL-18 polypeptide C160 (V11I, C38A, K53A, C76A, D110A, C127A) (human) (UniProt Q14116)
[24] = molecular target: IL-18 polypeptide C168 (V11I, C38A, C76A, S105K, C127A) (human) (UniProt Q14116)
Chain of IL-18 polypeptide C168 (V11I, C38A, C76A, S105K, C127A) (human) (Q14116 37-193 V47I/C74A/C112A/S141K/C163A): as the sequence (Q14116 other isoform, or with tags, fused parts or gaps V11I C38A C76A Q103R C127A V11I C38A C76A Q103R C127A) above, with E8K, R103Q, S105K counted along it

[25] = molecular target: IL-18 polypeptide C148 (F2A, V11I, C38A, K53A, C76A, C127A) (human) (UniProt Q14116)
[26] = molecular target: IL-18 polypeptide of SEQ ID NO: 30 (E6K, V11I, C38A, K53A, T63A, C76A, C127A) (human) (UniProt Q14116)
[27] = molecular target: IL-18 polypeptide C146, SEQ ID NO: 68 (V11I, C38A, M51G, K53A, C76A, C127A) (human) (UniProt Q14116)
[28] = molecular target: IL-18 polypeptide of SEQ ID NO: 54 (E06K, K53A, C38S, C68S, C76S, C127S, K70C) (human) (UniProt Q14116)
Chain of IL-18 polypeptide of SEQ ID NO: 54 (E06K, K53A, C38S, C68S, C76S, C127S, K70C) (human) (Q14116 37-193 E42K/C74S/K89A/C104S/K106C/C112S/C163S): as the sequence (Q14116 other isoform, or with tags, fused parts or gaps V11I C38A C76A Q103R C127A V11I C38A C76A Q103R C127A) above, with E6K, E8K, I11V, A38S, K53A, C68S, K70C, A76S, R103Q, A127S counted along it

[29] = molecular target: IL-18 polypeptide C154 (V11I, E31A, D37A, C38A, K53A, C76A, C127A) (human) (UniProt Q14116)
[30] = molecular target: IL-18 polypeptide C167 (V11I, C38A, C76A, S105I, C127A) (human) (UniProt Q14116)
Chain of IL-18 polypeptide C167 (V11I, C38A, C76A, S105I, C127A) (human) (Q14116 37-193 V47I/C74A/C112A/S141I/C163A): as the sequence (Q14116 other isoform, or with tags, fused parts or gaps V11I C38A C76A Q103R C127A V11I C38A C76A Q103R C127A) above, with E8K, R103Q, S105I counted along it

[31] = molecular target: IL-18 polypeptide of SEQ ID NO: 41 (K53A, S55A) (human) (UniProt Q14116)
Chain of IL-18 polypeptide of SEQ ID NO: 41 (K53A, S55A) (human) (Q14116 37-193 K89A/S91A): as the sequence (Q14116 other isoform, or with tags, fused parts or gaps V11I C38A C76A Q103R C127A V11I C38A C76A Q103R C127A) above, with E8K, I11V, A38C, K53A, S55A, A76C, R103Q, A127C counted along it

[32] = molecular target: IL-18 polypeptide of SEQ ID NO: 5 (E6K, V11I, C38A, K53A, T63A, C68A, C76A, M86C, C127A) (human) (UniProt Q14116)
Chain of IL-18 polypeptide of SEQ ID NO: 5 (E6K, V11I, C38A, K53A, T63A, C68A, C76A, M86C, C127A) (human) (Q14116 other isoform, or with tags, fused parts or gaps with the stated changes): as the sequence (Q14116 other isoform, or with tags, fused parts or gaps V11I C38A C76A Q103R C127A V11I C38A C76A Q103R C127A) above, with E6K, E8K, K53A, T63A, C68A, M86C, R103Q counted along it

[33] = molecular target: IL-18 polypeptide of SEQ ID NO: 40 (E06K, S55A) (human) (UniProt Q14116)
Chain of IL-18 polypeptide of SEQ ID NO: 40 (E06K, S55A) (human) (Q14116 37-193 E42K/S91A): as the sequence (Q14116 other isoform, or with tags, fused parts or gaps V11I C38A C76A Q103R C127A V11I C38A C76A Q103R C127A) above, with E6K, E8K, I11V, A38C, S55A, A76C, R103Q, A127C counted along it

[34] = molecular target: IL-18 polypeptide C158 (V11I, C38A, K53A, C76A, G108A, C127A) (human) (UniProt Q14116)
Chain of IL-18 polypeptide C158 (V11I, C38A, K53A, C76A, G108A, C127A) (human) (Q14116 37-193 V47I/C74A/K89A/C112A/G144A/C163A): as the sequence (Q14116 other isoform, or with tags, fused parts or gaps V11I C38A C76A Q103R C127A V11I C38A C76A Q103R C127A) above, with E8K, K53A, R103Q, G108A counted along it

[35] = molecular target: IL-18 polypeptide C165 (V11I, C38A, S55R, C76A, C127A) (human) (UniProt Q14116)
[36] = molecular target: IL-18 polypeptide C153 (V11I, D37A, C38A, K53A, C76A, C127A) (human) (UniProt Q14116)
Chain of IL-18 polypeptide C153 (V11I, D37A, C38A, K53A, C76A, C127A) (human) (Q14116 37-193 V47I/D73A/C74A/K89A/C112A/C163A): as the sequence (Q14116 other isoform, or with tags, fused parts or gaps V11I C38A C76A Q103R C127A V11I C38A C76A Q103R C127A) above, with E8K, D37A, K53A, R103Q counted along it

[37] = molecular target: IL-18 polypeptide of SEQ ID NO: 39 (E06K, K53A) (human) (UniProt Q14116)
[38] = molecular target: IL-18 polypeptide of SEQ ID NO: 38 (E06K) (human) (UniProt Q14116)
Chain of IL-18 polypeptide of SEQ ID NO: 38 (E06K) (human) (Q14116 37-193 E42K): as the sequence (Q14116 other isoform, or with tags, fused parts or gaps V11I C38A C76A Q103R C127A V11I C38A C76A Q103R C127A) above, with E6K, E8K, I11V, A38C, A76C, R103Q, A127C counted along it

[39] = molecular target: IL-18 polypeptide of SEQ ID NO: 57 (E6K, C38S, K53A) (human) (UniProt Q14116)
Chain of IL-18 polypeptide of SEQ ID NO: 57 (E6K, C38S, K53A) (human) (Q14116 other isoform, or with tags, fused parts or gaps C38S K53A C38S K53A): as the sequence (Q14116 other isoform, or with tags, fused parts or gaps V11I C38A C76A Q103R C127A V11I C38A C76A Q103R C127A) above, with E6K, E8K, I11V, A38S, K53A, A76C, R103Q, A127C counted along it

[40] = molecular target: IL-18 polypeptide C144 (V11I, C38A, K53A, T63A, C76A, C127A) (human) (UniProt Q14116)
Chain of IL-18 polypeptide C144 (V11I, C38A, K53A, T63A, C76A, C127A) (human) (Q14116 37-193 V47I/C74A/K89A/T99A/C112A/C163A): as the sequence (Q14116 other isoform, or with tags, fused parts or gaps V11I C38A C76A Q103R C127A V11I C38A C76A Q103R C127A) above, with E8K, K53A, T63A, R103Q counted along it

[41] = molecular target: IL-18 polypeptide of SEQ ID NO: 9 (E6K, C38A, K53A, C68A, D98C) (human) (UniProt Q14116)
[42] = molecular target: IL-18 polypeptide C145 (V11I, C38A, K53A, S55A, C76A, C127A) (human) (UniProt Q14116)
Chain of IL-18 polypeptide C145 (V11I, C38A, K53A, S55A, C76A, C127A) (human) (Q14116 37-193 V47I/C74A/K89A/S91A/C112A/C163A): as the sequence (Q14116 other isoform, or with tags, fused parts or gaps V11I C38A C76A Q103R C127A V11I C38A C76A Q103R C127A) above, with E8K, K53A, S55A, R103Q counted along it

[43] = molecular target: IL-18 polypeptide of SEQ ID NO: 62 (E6K, C38A, K53A, C127A) (human) (UniProt Q14116)
[44] = molecular target: IL-18 polypeptide C143 (V11I, C38A, K53A, C76A, C127A) (human) (UniProt Q14116)
Chain of IL-18 polypeptide C143 (V11I, C38A, K53A, C76A, C127A) (human) (Q14116 37-193 V47I/C74A/K89A/C112A/C163A): as the sequence (Q14116 other isoform, or with tags, fused parts or gaps V11I C38A C76A Q103R C127A V11I C38A C76A Q103R C127A) above, with E8K, K53A, R103Q counted along it

[45] = molecular target: IL-18 polypeptide of SEQ ID NO: 53 (K53A, T63A) (human) (UniProt Q14116)
[46] = molecular target: IL-18 polypeptide of SEQ ID NO: 36 (K53A) (human) (UniProt Q14116)
Chain of IL-18 polypeptide of SEQ ID NO: 36 (K53A) (human) (Q14116 37-193 K89A): as the sequence (Q14116 other isoform, or with tags, fused parts or gaps V11I C38A C76A Q103R C127A V11I C38A C76A Q103R C127A) above, with E8K, I11V, A38C, K53A, A76C, R103Q, A127C counted along it

[47] = molecular target: IL-18 polypeptide C155 (V11I, C38A, D40A, K53A, C76A, C127A) (human) (UniProt Q14116)
[48] = molecular target: IL-18 polypeptide C161 (K8R, V11I, C38A, C76A, Q103E, C127A) (human) (UniProt Q14116)
[49] = molecular target: IL-18 polypeptide of SEQ ID NO: 52 (E06K, T63A) (human) (UniProt Q14116)
[50] = molecular target: IL-18 polypeptide of SEQ ID NO: 35 (Y01G, F02A, E06K, M51G, K53A, D54A, S55A, T63A) (human) (UniProt Q14116)
[51] = molecular target: IL-18 polypeptide C159 (V11I, C38A, K53A, C76A, H109A, C127A) (human) (UniProt Q14116)
Chain of IL-18 polypeptide C159 (V11I, C38A, K53A, C76A, H109A, C127A) (human) (Q14116 37-193 V47I/C74A/K89A/C112A/H145A/C163A): as the sequence (Q14116 other isoform, or with tags, fused parts or gaps V11I C38A C76A Q103R C127A V11I C38A C76A Q103R C127A) above, with E8K, K53A, R103Q, H109A counted along it

[52] = molecular target: IL-18 polypeptide of SEQ ID NO: 6 (E6K, V11I, C38A, K53A, T63A, C68A, C76A, D98C, C127A) (human) (UniProt Q14116)
[53] = molecular target: IL-18 polypeptide of SEQ ID NO: 34 (E06K, K53A, S55A) (human) (UniProt Q14116)
[54] = molecular target: IL-18 polypeptide of SEQ ID NO: 51 (T63A) (human) (UniProt Q14116)
Chain of IL-18 polypeptide of SEQ ID NO: 51 (T63A) (human) (Q14116 37-193 T99A): as the sequence (Q14116 other isoform, or with tags, fused parts or gaps V11I C38A C76A Q103R C127A V11I C38A C76A Q103R C127A) above, with E8K, I11V, A38C, T63A, A76C, R103Q, A127C counted along it

[55] = molecular target: IL-18 polypeptide C157 (V11I, C38A, K53A, C76A, C127A, D132A) (human) (UniProt Q14116)

Chain of IL-18 polypeptide C147 (V11I, C38A, K53A, D54A, C76A, C127A) (human) (Q14116 37-193 V47I/C74A/K89A/D90A/C112A/C163A): as the sequence (Q14116 other isoform, or with tags, fused parts or gaps V11I C38A C76A Q103R C127A V11I C38A C76A Q103R C127A) above, with E8K, K53A, D54A, R103Q counted along it

IC50 of IL-18BPa inhibition of IFNγ induction in NK-92 cells [1]: 5.05 nM
IC50 of IL-18BPa inhibition of IFNγ induction in NK-92 cells [2]: 4.46 nM
IC50 of IL-18BPa inhibition of IFNγ induction in NK-92 cells [3]: 0.885 nM
IC50 of IL-18BPa inhibition of IFNγ induction in NK-92 cells [4]: 0.809 nM
IC50 of IL-18BPa inhibition of IFNγ induction in NK-92 cells [5]: 0.823 nM
IC50 of IL-18BPa inhibition of IFNγ induction in NK-92 cells [6]: > 1000 nM
IC50 of IL-18BPa inhibition of IFNγ induction in NK-92 cells [7]: 0.189 nM
IC50 of IL-18BPa inhibition of IFNγ induction in NK-92 cells [8]: > 1000 nM
IC50 of IL-18BPa inhibition of IFNγ induction in NK-92 cells [9]: 2.22 nM
IC50 of IL-18BPa inhibition of IFNγ induction in NK-92 cells [10]: 7.85 nM
IC50 of IL-18BPa inhibition of IFNγ induction in NK-92 cells [11]: 654 nM
IC50 of IL-18BPa inhibition of IFNγ induction in NK-92 cells [12]: 6.08 nM
IC50 of IL-18BPa inhibition of IFNγ induction in NK-92 cells [13]: 1060 nM
IC50 of IL-18BPa inhibition of IFNγ induction in NK-92 cells [14]: 21.3 nM
IC50 of IL-18BPa inhibition of IFNγ induction in NK-92 cells [15]: 146 nM
IC50 of IL-18BPa inhibition of IFNγ induction in NK-92 cells [16]: 396 nM
IC50 of IL-18BPa inhibition of IFNγ induction in NK-92 cells [17]: 1.47 nM
IC50 of IL-18BPa inhibition of IFNγ induction in NK-92 cells [18]: 0.114 nM
IC50 of IL-18BPa inhibition of IFNγ induction in NK-92 cells [19]: 3.62 nM
IC50 of IL-18BPa inhibition of IFNγ induction in NK-92 cells [20]: 0.456 nM
IC50 of IL-18BPa inhibition of IFNγ induction in NK-92 cells [21]: 27.8 nM
IC50 of IL-18BPa inhibition of IFNγ induction in NK-92 cells [22]: 0.444 nM
IC50 of IL-18BPa inhibition of IFNγ induction in NK-92 cells [23]: 1.07 nM
IC50 of IL-18BPa inhibition of IFNγ induction in NK-92 cells [24]: 5.85 nM
IC50 of IL-18BPa inhibition of IFNγ induction in NK-92 cells [25]: 1.17 nM
IC50 of IL-18BPa inhibition of IFNγ induction in NK-92 cells [26]: 284 nM
IC50 of IL-18BPa inhibition of IFNγ induction in NK-92 cells [27]: 47.6 nM
IC50 of IL-18BPa inhibition of IFNγ induction in NK-92 cells [28]: 23.5 nM
IC50 of IL-18BPa inhibition of IFNγ induction in NK-92 cells [29]: 3.23 nM
IC50 of IL-18BPa inhibition of IFNγ induction in NK-92 cells [30]: 0.176 nM
IC50 of IL-18BPa inhibition of IFNγ induction in NK-92 cells [31]: 37.3 nM
IC50 of IL-18BPa inhibition of IFNγ induction in NK-92 cells [32]: 62.4 nM
IC50 of IL-18BPa inhibition of IFNγ induction in NK-92 cells [33]: 15 nM
IC50 of IL-18BPa inhibition of IFNγ induction in NK-92 cells [34]: 1.81 nM
IC50 of IL-18BPa inhibition of IFNγ induction in NK-92 cells [35]: 0.44 nM
IC50 of IL-18BPa inhibition of IFNγ induction in NK-92 cells [36]: 3.71 nM
IC50 of IL-18BPa inhibition of IFNγ induction in NK-92 cells [37]: > 703 nM
IC50 of IL-18BPa inhibition of IFNγ induction in NK-92 cells [38]: 7.79 nM
IC50 of IL-18BPa inhibition of IFNγ induction in NK-92 cells [39]: 1.62 nM
IC50 of IL-18BPa inhibition of IFNγ induction in NK-92 cells [40]: 10.2 nM
IC50 of IL-18BPa inhibition of IFNγ induction in NK-92 cells [41]: 961 nM
IC50 of IL-18BPa inhibition of IFNγ induction in NK-92 cells [42]: 733 nM
IC50 of IL-18BPa inhibition of IFNγ induction in NK-92 cells [43]: 780 nM
IC50 of IL-18BPa inhibition of IFNγ induction in NK-92 cells [44]: 7.52 nM
IC50 of IL-18BPa inhibition of IFNγ induction in NK-92 cells [45]: 18.2 nM
IC50 of IL-18BPa inhibition of IFNγ induction in NK-92 cells [46]: 27.3 nM
IC50 of IL-18BPa inhibition of IFNγ induction in NK-92 cells [47]: 0.681 nM
IC50 of IL-18BPa inhibition of IFNγ induction in NK-92 cells [48]: 7.29 nM
IC50 of IL-18BPa inhibition of IFNγ induction in NK-92 cells [49]: 47.1 nM
IC50 of IL-18BPa inhibition of IFNγ induction in NK-92 cells [50]: > 55 nM
IC50 of IL-18BPa inhibition of IFNγ induction in NK-92 cells [51]: 3.18 nM
IC50 of IL-18BPa inhibition of IFNγ induction in NK-92 cells [52]: 5.85 nM
IC50 of IL-18BPa inhibition of IFNγ induction in NK-92 cells [53]: 229 nM
IC50 of IL-18BPa inhibition of IFNγ induction in NK-92 cells [54]: 0.239 nM
IC50 of IL-18BPa inhibition of IFNγ induction in NK-92 cells [55]: 3.98 nM
Substance: Fc-fused human IL-18 binding protein isoform a (IL-18BPa) (from UniProt O95998 31-194) (Fc fusion)
